Laboratory results published in the supplement of paper PMC9170038.
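Further: bound reporter read as fluorescence of individual clusters on recovered sequencing chips by microscopy, with normalized cluster intensities fitted with a binding model.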

The sequences below were run on K4 kissing-loop RNA reporter (assay: apparent KD of K4 kissing-loop reporter; higher = weaker reporter binding). Conditions: Eterna round: R107; input ligand: arginine 13.2 mM.
Protocol: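 RNA-MaP round R107: designed RNA switches with theophylline, tryptophan, arginine or FMN aptamers are transcribed on-chip within common flanks. They are titrated with a labelled K4 kissing-loop RNA reporter in RNA-MaP buffer (100 mM Tris pH 7.5, 80 mM KCl, 4 mM MgCl2), without ligand or with the indicated ligand. Median apparent KD per design.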
With “AAUAAUCUAGGUGAUACCAGCUCAACAUGAGUGAUGUUCGUGAGCUAAUGUAGAGUUGAGAGCCCUUGGCAGCACCUAGAUAAUA [KL-SSTheoB7]” the “apparent KD of K4 kissing-loop reporter” value was 0.552 µM. “CACCAUGAAUUCUCUAGGAGUGAUGUUUUUCGAGGACCGGUACGGCCGCCACUCGGACGAGGACCGUGGGAGCGGCGAAGCGGCU [?oegmullin]” was tested, and the “apparent KD of K4 kissing-loop reporter” value was 0.0591 µM. “UCCGAGCUUAUUGAUACCAGUUCGGCGAGCUACUAGAGUGAUGUUCUUGUAAGCGUACACAACCCUUGGCAGCAAUAGAGGAGGU [theeternabot_sameState_KL_Theo_B_37]” was tested, and the “apparent KD of K4 kissing-loop reporter” value was 0.128 µM. In the case of “UCCUAGACUUAGCUAGGUAUAUAAUACGAUACCAGUCUAGAGAUAGACCCUUGGCAGCGUAGGCAGUGAUGUUGCCACUAGCUGA [Theo B SS t7a]”, the “apparent KD of K4 kissing-loop reporter” value was 0.11 µM. For “GCCCUCUUAACGGCCGCCACUAUAUUUAUGAUCUCUAGUAAGUGAUGUUUACUCCGGCUUAUAGGUAGGACCGGGUUAUUAUCUU [theeternabot_sameState_KL_Trp_B_39]”, the “apparent KD of K4 kissing-loop reporter” value was 0.336 µM. For “UAAUGGUAAGUGAUGUUUACCUGGAACGAUACCAGUCGCCAUGAGGACCCUUGGCAGCGUCACACAGCCUUCUAGUUGUGGUCUU [theeternabot_sameState_KL_Theo_A_46]”, the “apparent KD of K4 kissing-loop reporter” value was 0.298 µM. “UAUAUAGUGACGGCCGCCACUAUAUUAAUGUUUUUGUUAGAGUGAUGUUUUGUUUUUUAAUUUUAUAGGACCGGGUUAUAUGUUA [xnxmullin]” was tested, and the “apparent KD of K4 kissing-loop reporter” value was 0.155 µM. In the case of “ACGUGUCACUGAAGGAGCGUCUACCGAAUACGAGUGAUGUUCGUACACCACUGAUAUAGUGGACAGGUAGGUCGCAGUGAUACGU [Arg B Ex t3]”, the “apparent KD of K4 kissing-loop reporter” value was 0.101 µM. In the case of “CCUCUCCUUGAUAGUGAUGUUAUCAAGGACAAGGAUAUCAUCUCAAUGAGAAGGUGUCCUUGAUAACAUGGAGGUCUGAAACAGA [Omei KL FMN A Exc C v1]”, the “apparent KD of K4 kissing-loop reporter” value was 0.126 µM. “AAACAUCACUGGGAGUGAUGUUCUCAGUGACGAGGACCGGUACGGCCGCCACUCGCGAGAGAUAUAGUCAAGUAAUGACUGCAUU [Excl Tryptophan A V9]” was tested, and the “apparent KD of K4 kissing-loop reporter” value was 0.309 µM. For “AAUGUAUACUGAAGGAGCGAGUAGUGGAAACAUAAACUCAAUGCGAGUGAUGUUCGCAGUACUCAGGUAGGUCGCAGUAAUGGUA [Exclusion Arginine B Gf 8]”, the “apparent KD of K4 kissing-loop reporter” value was 0.311 µM. For “GCAAAGUGUCAUAUUAUCUAGCAGCUGCGAAAGGAUAUGAGAGUGCUCAGAAGGUUCUUGGCGGAGUGAUGUUCCGCGUAAAUGG [theeternabot_exclusion_KL_FMN_A_22]”, the “apparent KD of K4 kissing-loop reporter” value was 0.0938 µM. “GGAUUUGAAAGUGAGUGAUGUUCAUGUUGUGAGGAUAUGUAGAGAUAUAGAAGGCACGUUUGUAUUUUUUUUGUGUGAGAUUAAA [Last Minute #1]” was tested, and the “apparent KD of K4 kissing-loop reporter” value was 0.0649 µM. With “UGUACCGAGUCAGGAUAUGGUAUACCGGAAACGGACCAGUGAUGUUGGAGGCGAAAGCCAUAAAAUCCAGAAGGGACUUGGUACU [FmnBS 19 #SwitchBubble #StaticStem #DoubleMagnetSystem]” the “apparent KD of K4 kissing-loop reporter” value was 0.569 µM. With “UUUUUGGAGAAUUAUAGUGAUGUUAUGAAGGAGGAUAUCUAAAGAUGGAGAAGGUUUAAUAGUUAAGGGAUGGAGGGUGGGUGGG [ExFMNA.Q]” the “apparent KD of K4 kissing-loop reporter” value was 0.18 µM. In the case of “AAGUUUUAUAAACUCAUGGUUUCGACAGAUACCAGCUUCGAGAGGAGCCCUUGGCAGCUGCAUGAGUGAUGUUCAUGUACGAAGA [KL-XTheoA8]”, the “apparent KD of K4 kissing-loop reporter” value was 0.362 µM. “AGGUUUUGAUUAGGAUAUGCACUGAGGAGGAGAAUAUAGUGAUGUUAUAUAAGAGGAAGUAGUAGAGUAGAAGGGAUUGAGGUUU [SSFMNB.S]” was tested, and the “apparent KD of K4 kissing-loop reporter” value was 0.167 µM. For “CGUUUAUAGCAGGAUACCAGUACCCAUAAAGUACGUUAAUAGUAGAGUGAUGUUCUAAAGUACCCUUGGCAGCUUCCCGUGACUG [ExTheophylB.U]”, the “apparent KD of K4 kissing-loop reporter” value was 0.116 µM. With “AGGGAUGUUAAAGGAUAUAGAAAGUGAUGUUAGAAAGUGAGUGAUGUUGAUGUAAGUGAUGAUAUGUUAGAAGGUUAACAAAACG [abc]” the “apparent KD of K4 kissing-loop reporter” value was 0.111 µM. For “CGCGCCCGGCCGGAUACCAGUGACCCGCUGGGAACCGCGGGCCCAGAGUGAUGUUCGGGACACCCUUGGCAGCCGCCUGGGCGUG [#2 Same State - Theophylline B Attempt #5 (HarryS)]”, the “apparent KD of K4 kissing-loop reporter” value was 0.364 µM. For “GGAGUCCCGUUAGAUUGUGUAGAUACAAGACGAGGACCGGUACGGCCGCCACUCGCCAUCGUCCAGUGAUGUUGGGCGUCACGGG [theeternabot_sameState_KL_Trp_A_30]”, the “apparent KD of K4 kissing-loop reporter” value was 0.179 µM. For “GCCGUACGCAUGGAUACCAGCACAGGCCGAAGUGAUGUUUCGUGCGUAUAUUUGUGCUACUGCCCUUGGCAGCCAUGCGUACGGC”, the “apparent KD of K4 kissing-loop reporter” value was 0.0669 µM. “CCGAUACAUUAUUCUACGGCCGAGAGUGAUACCAGCCAUAUUUAUGGCCCUUGGCAGCGCAGAUGCAGUGAUGUUGCAUACUUAC [Same State Theophylline A GF 19]” was tested, and the “apparent KD of K4 kissing-loop reporter” value was 0.119 µM. With “GGUCGAGUGAUGUUCGAUGUUAUGCAUUCAGAGGAUAUAGGAUUAGCUAGAAGGCUGAAUCAAUCUUCGAGUGAUGUUCGAGGAU [Same State FMN A GF 9]” the “apparent KD of K4 kissing-loop reporter” value was 0.108 µM. For “AACUUAAUUUAUAAGCAGUGAUGUUGCUCACGAGGACCGGUACGGCCGCCACUCGAUCGGACUUAGGUCUUCAAUUAUUUCAUUA [JR_ExcTryptoA_Sub017]”, the “apparent KD of K4 kissing-loop reporter” value was 0.192 µM. In the case of “GAUUGAGUGAUGUUCAAUUAGUAUCUAGAUACCAGAAUGUCUACCUUCCCUUGGCAGCUACUGACGGUGAUCAUUUCGCGCGCAG [theeternabot_sameState_KL_Theo_A_19]”, the “apparent KD of K4 kissing-loop reporter” value was 0.222 µM.
